Experimental data as given in patent publication US20220401557A1 (Chugai, published 2022).

B1: rCE115/GLSuPA20//GCH065 (bispecific antibody, human IgG1, kappa, N297A)
heavy 1: EVQLVETGGSLVQPGKSLKLTCATSGFTFSNAWMHWVRQSPEKQLEWVAQIKAKSNNYATYYAESVKGRFTISRDDSKSNIYLQMNSLKEEDTAVYYCRYVHYGAYYGVDAWGQGTSVTVSSASTKGPSVFPLAPSSKSTSGGTAALGCLVKDYFPEPVTVSWNSGALTSGVHTFPAVLQSSGLYSLSSVVTVPSSSLGTQTYICNVNHKPSNTKVDKKVEPKSCDKTHTCPPCPAPELRGGPKVFLFPPKPKDTLMISRTPEVTCVVVDVSHEDPEVKFNWYVDGVEVHNAKTKPREEQYASTYRVVSVLTVLHQDWLNGKEYKCKVSNKALPAPIEKTISKAKGQPREPQVYTLPPSRKEMTKNQVSLTCLVKGFYPSDIAVEWESNGQPENNYKTTPPYLDSDGSFFLYSKLTVDKSRWQQGNVFSCSVMHEALHNHYTQKSLSLSP
light 1: QDGNEEMGGITQTPYKVSISLSGRSDNHGGGSDIVMTQSPLSLPVTPGEPASISCRSSQSLVHSNRNTYLHWYQQKPGQAPRLLIYKVSNRFSGVPDRFSGSGSGTDFTLKISRVEAEDVGVYYCGQGTQVPYTFGQGTKLEIKRTVAAPSVFIFPPSDEQLKSGTASVVCLLNNFYPREAKVQWKVDNALQSGNSQESVTEQDSKDSTYSLSSTLTLSKADYEKHKVYACEVTHQGLSSPVTKSFNRGEC
heavy 2: QVQLVQSGAEVKKPGASVTVSCKASGYTFTDYEMHWIRQPPGEGLEWIGAIDGPTPDTAYSEKFKGRVTLTADKSTSTAYMELSSLTSEDTAVYYCTRFYSYTYWGQGTLVTVSSASTKGPSVFPLAPSSKSTSGGTAALGCLVKDYFPEPVTVSWNSGALTSGVHTFPAVLQSSGLYSLSSVVTVPSSSLGTQTYICNVNHKPSNTKVDKKVEPKSCDKTHTCPPCPAPELRGGPKVFLFPPKPKDTLMISRTPEVTCVVVDVSHEDPEVKFNWYVDGVEVHNAKTKPREEQYASTYRVVSVLTVLHQDWLNGKEYKCKVSNKALPAPIEKTISKAKGQPREPQVYTLPPSREEMTKNQVSLTCLVKGFYPSDIAVEWESNGQPENNYKTTPPYLDSDGSFFLYSKLTVDKSRWQQGNVFSCSVMHEALHNHYTQESLSLSP
light 2: DIVMTQSPLSLPVTPGEPASISCRSSQPLVHSNRNTYLHWYQQKPGQAPRLLIYKVSNRFSGVPDRFSGSGSGTDFTLKISRVEAEDVGVYYCGQGTQVPYTFGQGTKLEIKRTVAAPSVFIFPPSDEQLKSGTASVVCLLNNFYPREAKVQWKVDNALQSGNSQESVTEQDSKDSTYSLSSTLTLSKADYEKHKVYACEVTHQGLSSPVTKSFNRGEC
B2: rCE115/rCE115//GCH065 (bispecific antibody, human IgG1, kappa, N297A)
heavy 1: EVQLVETGGSLVQPGKSLKLTCATSGFTFSNAWMHWVRQSPEKQLEWVAQIKAKSNNYATYYAESVKGRFTISRDDSKSNIYLQMNSLKEEDTAVYYCRYVHYGAYYGVDAWGQGTSVTVSSASTKGPSVFPLAPSSKSTSGGTAALGCLVKDYFPEPVTVSWNSGALTSGVHTFPAVLQSSGLYSLSSVVTVPSSSLGTQTYICNVNHKPSNTKVDKKVEPKSCDKTHTCPPCPAPELRGGPKVFLFPPKPKDTLMISRTPEVTCVVVDVSHEDPEVKFNWYVDGVEVHNAKTKPREEQYASTYRVVSVLTVLHQDWLNGKEYKCKVSNKALPAPIEKTISKAKGQPREPQVYTLPPSRKEMTKNQVSLTCLVKGFYPSDIAVEWESNGQPENNYKTTPPYLDSDGSFFLYSKLTVDKSRWQQGNVFSCSVMHEALHNHYTQKSLSLSP
light 1: DVVMTQTPVSMSVSLGGQVSISCRSSQSLVHNNGNTYVSWYIQKPSQSPQLLIYKVSNRFSGISDRFSGSGSGTDFTLKISRVEPDDLGVYYCGQGTQDPYTFGAGTKLELKRTVAAPSVFIFPPSDEQLKSGTASVVCLLNNFYPREAKVQWKVDNALQSGNSQESVTEQDSKDSTYSLSSTLTLSKADYEKHKVYACEVTHQGLSSPVTKSFNRGEC
heavy 2: QVQLVQSGAEVKKPGASVTVSCKASGYTFTDYEMHWIRQPPGEGLEWIGAIDGPTPDTAYSEKFKGRVTLTADKSTSTAYMELSSLTSEDTAVYYCTRFYSYTYWGQGTLVTVSSASTKGPSVFPLAPSSKSTSGGTAALGCLVKDYFPEPVTVSWNSGALTSGVHTFPAVLQSSGLYSLSSVVTVPSSSLGTQTYICNVNHKPSNTKVDKKVEPKSCDKTHTCPPCPAPELRGGPKVFLFPPKPKDTLMISRTPEVTCVVVDVSHEDPEVKFNWYVDGVEVHNAKTKPREEQYASTYRVVSVLTVLHQDWLNGKEYKCKVSNKALPAPIEKTISKAKGQPREPQVYTLPPSREEMTKNQVSLTCLVKGFYPSDIAVEWESNGQPENNYKTTPPYLDSDGSFFLYSKLTVDKSRWQQGNVFSCSVMHEALHNHYTQESLSLSP
light 2: DIVMTQSPLSLPVTPGEPASISCRSSQPLVHSNRNTYLHWYQQKPGQAPRLLIYKVSNRFSGVPDRFSGSGSGTDFTLKISRVEAEDVGVYYCGQGTQVPYTFGQGTKLEIKRTVAAPSVFIFPPSDEQLKSGTASVVCLLNNFYPREAKVQWKVDNALQSGNSQESVTEQDSKDSTYSLSSTLTLSKADYEKHKVYACEVTHQGLSSPVTKSFNRGEC
B3: rCE115/rCE115GS//GCH065 (bispecific antibody, human IgG1, kappa, N297A)
heavy 1: EVQLVETGGSLVQPGKSLKLTCATSGFTFSNAWMHWVRQSPEKQLEWVAQIKAKSNNYATYYAESVKGRFTISRDDSKSNIYLQMNSLKEEDTAVYYCRYVHYGAYYGVDAWGQGTSVTVSSASTKGPSVFPLAPSSKSTSGGTAALGCLVKDYFPEPVTVSWNSGALTSGVHTFPAVLQSSGLYSLSSVVTVPSSSLGTQTYICNVNHKPSNTKVDKKVEPKSCDKTHTCPPCPAPELRGGPKVFLFPPKPKDTLMISRTPEVTCVVVDVSHEDPEVKFNWYVDGVEVHNAKTKPREEQYASTYRVVSVLTVLHQDWLNGKEYKCKVSNKALPAPIEKTISKAKGQPREPQVYTLPPSRKEMTKNQVSLTCLVKGFYPSDIAVEWESNGQPENNYKTTPPYLDSDGSFFLYSKLTVDKSRWQQGNVFSCSVMHEALHNHYTQKSLSLSP
light 1: QDGNEGGGSGGGSGGGSDVVMTQTPVSMSVSLGGQVSISCRSSQSLVHNNGNTYVSWYIQKPSQSPQLLIYKVSNRFSGISDRFSGSGSGTDFTLKISRVEPDDLGVYYCGQGTQDPYTFGAGTKLELKRTVAAPSVFIFPPSDEQLKSGTASVVCLLNNFYPREAKVQWKVDNALQSGNSQESVTEQDSKDSTYSLSSTLTLSKADYEKHKVYACEVTHQGLSSPVTKSFNRGEC
heavy 2: QVQLVQSGAEVKKPGASVTVSCKASGYTFTDYEMHWIRQPPGEGLEWIGAIDGPTPDTAYSEKFKGRVTLTADKSTSTAYMELSSLTSEDTAVYYCTRFYSYTYWGQGTLVTVSSASTKGPSVFPLAPSSKSTSGGTAALGCLVKDYFPEPVTVSWNSGALTSGVHTFPAVLQSSGLYSLSSVVTVPSSSLGTQTYICNVNHKPSNTKVDKKVEPKSCDKTHTCPPCPAPELRGGPKVFLFPPKPKDTLMISRTPEVTCVVVDVSHEDPEVKFNWYVDGVEVHNAKTKPREEQYASTYRVVSVLTVLHQDWLNGKEYKCKVSNKALPAPIEKTISKAKGQPREPQVYTLPPSREEMTKNQVSLTCLVKGFYPSDIAVEWESNGQPENNYKTTPPYLDSDGSFFLYSKLTVDKSRWQQGNVFSCSVMHEALHNHYTQESLSLSP
light 2: DIVMTQSPLSLPVTPGEPASISCRSSQPLVHSNRNTYLHWYQQKPGQAPRLLIYKVSNRFSGVPDRFSGSGSGTDFTLKISRVEAEDVGVYYCGQGTQVPYTFGQGTKLEIKRTVAAPSVFIFPPSDEQLKSGTASVVCLLNNFYPREAKVQWKVDNALQSGNSQESVTEQDSKDSTYSLSSTLTLSKADYEKHKVYACEVTHQGLSSPVTKSFNRGEC
B4: rCE115/GLSuPA27//GCH065 (bispecific antibody, human IgG1, kappa, N297A)
heavy 1: EVQLVETGGSLVQPGKSLKLTCATSGFTFSNAWMHWVRQSPEKQLEWVAQIKAKSNNYATYYAESVKGRFTISRDDSKSNIYLQMNSLKEEDTAVYYCRYVHYGAYYGVDAWGQGTSVTVSSASTKGPSVFPLAPSSKSTSGGTAALGCLVKDYFPEPVTVSWNSGALTSGVHTFPAVLQSSGLYSLSSVVTVPSSSLGTQTYICNVNHKPSNTKVDKKVEPKSCDKTHTCPPCPAPELRGGPKVFLFPPKPKDTLMISRTPEVTCVVVDVSHEDPEVKFNWYVDGVEVHNAKTKPREEQYASTYRVVSVLTVLHQDWLNGKEYKCKVSNKALPAPIEKTISKAKGQPREPQVYTLPPSRKEMTKNQVSLTCLVKGFYPSDIAVEWESNGQPENNYKTTPPYLDSDGSFFLYSKLTVDKSRWQQGNVFSCSVMHEALHNHYTQKSLSLSP
light 1: QDGNEEMGGITQTPYKVSISGTTVILTLSGRSDNHDIVMTQSPLSLPVTPGEPASISCRSSQSLVHSNRNTYLHWYQQKPGQAPRLLIYKVSNRFSGVPDRFSGSGSGTDFTLKISRVEAEDVGVYYCGQGTQVPYTFGQGTKLEIKRTVAAPSVFIFPPSDEQLKSGTASVVCLLNNFYPREAKVQWKVDNALQSGNSQESVTEQDSKDSTYSLSSTLTLSKADYEKHKVYACEVTHQGLSSPVTKSFNRGEC
heavy 2: QVQLVQSGAEVKKPGASVTVSCKASGYTFTDYEMHWIRQPPGEGLEWIGAIDGPTPDTAYSEKFKGRVTLTADKSTSTAYMELSSLTSEDTAVYYCTRFYSYTYWGQGTLVTVSSASTKGPSVFPLAPSSKSTSGGTAALGCLVKDYFPEPVTVSWNSGALTSGVHTFPAVLQSSGLYSLSSVVTVPSSSLGTQTYICNVNHKPSNTKVDKKVEPKSCDKTHTCPPCPAPELRGGPKVFLFPPKPKDTLMISRTPEVTCVVVDVSHEDPEVKFNWYVDGVEVHNAKTKPREEQYASTYRVVSVLTVLHQDWLNGKEYKCKVSNKALPAPIEKTISKAKGQPREPQVYTLPPSREEMTKNQVSLTCLVKGFYPSDIAVEWESNGQPENNYKTTPPYLDSDGSFFLYSKLTVDKSRWQQGNVFSCSVMHEALHNHYTQESLSLSP
light 2: DIVMTQSPLSLPVTPGEPASISCRSSQPLVHSNRNTYLHWYQQKPGQAPRLLIYKVSNRFSGVPDRFSGSGSGTDFTLKISRVEAEDVGVYYCGQGTQVPYTFGQGTKLEIKRTVAAPSVFIFPPSDEQLKSGTASVVCLLNNFYPREAKVQWKVDNALQSGNSQESVTEQDSKDSTYSLSSTLTLSKADYEKHKVYACEVTHQGLSSPVTKSFNRGEC

Molecular target: CD3 on NFAT-RE-luc2-Jurkat cells (human, UniProt P07766 23-207)
Sequence (P07766 23-207): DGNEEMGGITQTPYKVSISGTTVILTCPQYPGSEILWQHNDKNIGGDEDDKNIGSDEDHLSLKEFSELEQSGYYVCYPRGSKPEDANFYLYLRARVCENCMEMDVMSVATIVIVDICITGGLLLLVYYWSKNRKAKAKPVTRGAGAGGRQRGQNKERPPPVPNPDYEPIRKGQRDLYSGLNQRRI
Test: cell-based or functional assay

Point of comparison: B1, “increase rate due to the protease treatment (luciferase, uPA-treated / untreated), antibody 0.1 nM” value 2.8 ratio. Against it:
- B2 — lower, 0.7 ratio
- B3 — lower, 0.9 ratio
- B4 — lower, 1 ratio

Point of comparison: B2, “increase rate due to the protease treatment (luciferase, uPA-treated / untreated), antibody 1 nM” value 0.9 ratio. Against it:
- B1 — higher, 1.6 ratio
- B3 — lower, 0.6 ratio
- B4 — higher, 1.5 ratio
